Source: patent US20240279288A1, “APPLICATION OF PLANT JAZ PROTEINS AND DERIVED POLYPEPTIDES IN PREVENTION AND TREATMENT OF HUMAN AND ANIMAL TUMORS” (ANYANG INSTITUTE OF SINO-COTTON INDUSTRY INNOVATION, priority 2021, published 2024)

What was measured:
[1] = tested on: normal breast epithelial cells MCF10A; assay: Cell cycle detection (PI DNA content), MCF10A; assay type: cell-based; settings: 0.691 μM, 24 h, vs PBS
Protocol: Cell cycle detection: cells were moderately digested by trypsin, and collected by centrifugation with supernatant removed, and then cells were washed with PBS, and collected by centrifugation at 1,500 rpm for 5 minutes to prepare a single-cell suspension (at a concentration of 1×10^6/ml). 1 ml of single-cell suspension was then taken and centrifuged with the supernatant discarded, and then 500 μl of 70% pre-cooled ethanol were added to fix the cells overnight at 4° C. The next day, cells were collected by centrifugation, resuspended with 1 ml of PBS and centrifuged, and then 100 μl of RNase A solution were added to the cell pellet, followed by placement in water bath at 37° C. for 30 min, and then 400 μl of PI staining solution was added and mixed well, followed by incubation at 4° C. in dark for 30 min and detection on the instrument to record under red fluorescence at the excitation wavelength of 488 nm. Specifically, a DNA content detection kit (cell cycle) (Solarbio, Cat. No.: CA1510) was used.

c-Myc-215aa = molecular target: T1, c-Myc-215aa (Homo sapiens, UniProt P01106); assay: Yeast two hybrid and LUC with c-Myc truncated to first 215 amino acids; assay type: binding
T1 construct: expressed in transfected cells
Description: […]

T1 sequence (P01106 1-215): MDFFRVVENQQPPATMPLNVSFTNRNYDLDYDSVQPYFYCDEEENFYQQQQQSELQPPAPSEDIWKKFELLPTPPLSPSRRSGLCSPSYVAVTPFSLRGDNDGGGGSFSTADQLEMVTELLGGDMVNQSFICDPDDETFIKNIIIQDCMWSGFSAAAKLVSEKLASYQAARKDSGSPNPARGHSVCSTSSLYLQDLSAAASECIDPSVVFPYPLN

B1: GhJAZ1: cotton JAZ1 protein, gene number Gh_A05G0260, sequence SEQ ID No. 4; prokaryotically expressed with His tag, about 30 KD (protein)
chain: MSSCSESTAMKPARSPEKPSFAQTCNLLSQYLKEKGSFGDLSLGMTCNVEANGTPVVPPPTMNLFPLNDKSDDVCGRNGGNPKNLTSMDLFPQQAGLASKDDSPNKLEPQTAPMTIFYGGQVIVFNDFPANKAKEIMLLASNSSSQSNNSFNPIPFTSSIARSPIESSIGVPPTSKPVHPAQRAVPGDLPIARRASLHRFLEKRKDRITAKAPYQINNSAAAPSLSGDNKSWLGLAAQSP
modifications: His tag
notes: prokaryotically expressed with His tag, about 30 KD
G2-M phase block in MCF10A cells [1]: no G2-M phase block
interaction with first 215 amino acids truncated c-Myc (c-Myc-215aa): strong interactions
